Measurements from publication doi:10.1101/2024.09.12.612744 (bioRxiv, 2024).

B1: PKD2 WT channel (hPKD2: 52-793) (domain or fragment, human, UniProt Q13563 52-793, looked up)
chain: LEIEMQRIRQAAARDPPAGAAASPSPPLSSCSRQAWSRDNPGFEAEEEEEEVEGEEGGMVVEMDVEWRPGSRRSAASSAVSSVGARSRGLGGYHGAGHPSGRRRRREDQGPPCPSPVGGGDPLHRHLPLEGQPPRVAWAERLVRGLRGLWGTRLMEESSTNREKYLKSVLRELVTYLLFLIVLCILTYGMMSSNVYYYTRMMSQLFLDTPVSKTEKTNFKTLSSMEDFWKFTEGSLLDGLYWKMQPSNQTEADNRSFIFYENLLLGVPRIRQLRVRNGSCSIPQDLRDEIKECYDVYSVSSEDRAPFGPRNGTAWIYTSEKDLNGSSHWGIIATYSGAGYYLDLSRTREETAAQVASLKKNVWLDRGTRATFIDFSVYNANINLFCVVRLLVEFPATGGVIPSWQFQPLKLIRYVTTFDFFLAACEIIFCFFIFYYVVEEILEIRIHKLHYFRSFWNCLDVVIVVLSVVAIGINIYRTSNVEVLLQFLEDQNTFPNFEHLAYWQIQFNNIAAVTVFFVWIKLFKFINFNRTMSQLSTTMSRCAKDLFGFAIMFFIIFLAYAQLAYLVFGTQVDDFSTFQECIFTQFRIILGDINFAEIEEANRVLGPIYFTTFVFFMFFILLNMFLAIINDTYSEVKSDLAQQKAEMELSDLIRKGYHKALVKLKLKKNTVDDISESLRQGGGKLNFDELRQDLKGKGHTDAEIEAIFTKYDQDGDQELTEHEHQQMRDDLEKEREDLDLDH
B2: PKD2 R638C variant channel (hPKD2: 52-793) (domain or fragment, human, UniProt Q13563 52-793, looked up)
chain: LEIEMQRIRQAAARDPPAGAAASPSPPLSSCSRQAWSRDNPGFEAEEEEEEVEGEEGGMVVEMDVEWRPGSRRSAASSAVSSVGARSRGLGGYHGAGHPSGRRRRREDQGPPCPSPVGGGDPLHRHLPLEGQPPRVAWAERLVRGLRGLWGTRLMEESSTNREKYLKSVLRELVTYLLFLIVLCILTYGMMSSNVYYYTRMMSQLFLDTPVSKTEKTNFKTLSSMEDFWKFTEGSLLDGLYWKMQPSNQTEADNRSFIFYENLLLGVPRIRQLRVRNGSCSIPQDLRDEIKECYDVYSVSSEDRAPFGPRNGTAWIYTSEKDLNGSSHWGIIATYSGAGYYLDLSRTREETAAQVASLKKNVWLDRGTRATFIDFSVYNANINLFCVVRLLVEFPATGGVIPSWQFQPLKLIRYVTTFDFFLAACEIIFCFFIFYYVVEEILEIRIHKLHYFRSFWNCLDVVIVVLSVVAIGINIYRTSNVEVLLQFLEDQNTFPNFEHLAYWQIQFNNIAAVTVFFVWIKLFKFINFNRTMSQLSTTMSRCAKDLFGFAIMFFIIFLAYAQLAYLVFGTQVDDFSTFQECIFTQFCIILGDINFAEIEEANRVLGPIYFTTFVFFMFFILLNMFLAIINDTYSEVKSDLAQQKAEMELSDLIRKGYHKALVKLKLKKNTVDDISESLRQGGGKLNFDELRQDLKGKGHTDAEIEAIFTKYDQDGDQELTEHEHQQMRDDLEKEREDLDLDH
B3: PKD2 F629S variant channel (hPKD2: 52-793) (domain or fragment, human, UniProt Q13563 52-793, looked up)
chain: LEIEMQRIRQAAARDPPAGAAASPSPPLSSCSRQAWSRDNPGFEAEEEEEEVEGEEGGMVVEMDVEWRPGSRRSAASSAVSSVGARSRGLGGYHGAGHPSGRRRRREDQGPPCPSPVGGGDPLHRHLPLEGQPPRVAWAERLVRGLRGLWGTRLMEESSTNREKYLKSVLRELVTYLLFLIVLCILTYGMMSSNVYYYTRMMSQLFLDTPVSKTEKTNFKTLSSMEDFWKFTEGSLLDGLYWKMQPSNQTEADNRSFIFYENLLLGVPRIRQLRVRNGSCSIPQDLRDEIKECYDVYSVSSEDRAPFGPRNGTAWIYTSEKDLNGSSHWGIIATYSGAGYYLDLSRTREETAAQVASLKKNVWLDRGTRATFIDFSVYNANINLFCVVRLLVEFPATGGVIPSWQFQPLKLIRYVTTFDFFLAACEIIFCFFIFYYVVEEILEIRIHKLHYFRSFWNCLDVVIVVLSVVAIGINIYRTSNVEVLLQFLEDQNTFPNFEHLAYWQIQFNNIAAVTVFFVWIKLFKFINFNRTMSQLSTTMSRCAKDLFGFAIMFFIIFLAYAQLAYLVFGTQVDDFSTSQECIFTQFRIILGDINFAEIEEANRVLGPIYFTTFVFFMFFILLNMFLAIINDTYSEVKSDLAQQKAEMELSDLIRKGYHKALVKLKLKKNTVDDISESLRQGGGKLNFDELRQDLKGKGHTDAEIEAIFTKYDQDGDQELTEHEHQQMRDDLEKEREDLDLDH

How the values were obtained:
[1] = molecular target: the molecule itself; assay: SEC
[2] = molecular target: the molecule itself; assay: cryo-EM structure

Row | Protein | binding result [1] | stoichiometry N [2]
1 | B1 | binds | –
2 | B2 | – | 4
3 | B3 | – | 4
